Experimental findings from patent publication US6159731, “Daxx, a Fas-binding protein that activates JNK and apoptosis” (Massachusetts Institute of Technology, dated 2000) are described below.

The target in experiment [1] is full length murine Fas expressed in cells (murine) (UniProt P25446).
For experiment [2], the target named is glutathione S-transferase (GST) (Schistosoma japonicum (Blood fluke), UniProt P08515 = GST). Nature of the experiment: GST pull-down of in vitro translated 35S-Daxx. The text has this: In the two-hybrid system, the Daxx C-terminal region interacted strongly with Fas, confirming that Daxx is the functional homolog of clone A21 (FIG. 1B). We then tested the binding of full length murine Daxx protein in vitro and in mammalian cells. In vitro translated, ^35S-labeled Daxx bound to immobilized glutathione S-transferase (GST) fusion proteins of Fas death domain and TNFR1 intracellular tail but not to immobilized GST or GST-CD40 intracellular tail or GST-Fas lpr^cg death domain (FIG. 3A). Positions of MW standards (in kDa) are shown at left. Coomassie stained GST fusion proteins from the same gel were aligned to show protein levels. Daxx migrated with an apparent molecular weight of approximately 120 kDa on SDS-PAGE; this slower than expected migration may reflect the high content of acidic residues in Daxx. In the GST pull-down assay, ^35S-Daxx bound to GST-FasDD but only very weakly to GST-TNFR1. This discrepancy with the two-hybrid result (FIG. 1) may be due to the nonlinear readout of the two-hybrid system. Deletion of 162 amino acids from the C-terminus of Daxx abrogated binding to GST-FasDD while the C-terminal 112 amino acids (DaxxC) was sufficient to bind GST-FasDD (FIG. 3B), consistent with the two-hybrid results. Daxx(-162) was missing C-terminal 162 aa of Daxx; DaxxC corresponded to aa 628-739. […]

Molecule “HA-Daxx (hemagglutinin-tagged full length murine Daxx)” returned a specific apoptosis of L929 cells stably overexpressing Daxx (L/Daxx) after Fas transfection in experiment [1] of 3 fold.

B1: in vitro translated 35S-labeled full length murine Daxx (other)
chain: MATDDSIIVLDDDDEDEAAAQPGPSNLPPNPASTGPGPGLSQQATGLSEPRVDGGSSNSGSRKCYKLDNEKLFEEFLELCKTETSDHPEVVPFLHKLQQRAQSVFLASAEFCNILSRVLARSRKRPAKIYVYINELCTVLKAHSIKKKLNLAPAASTTSEASGPNPPTEPPSDLTNTENTASEASRTRGSRRQIQRLEQLLALYVAEIRRLQEKELDLSELDDPDSSYLQEARLKRKLIRLFGRLCELKDCSSLTGRVIEQRIPYRGTRYPEVNRRIERLINKPGLDTFPDYGDVLRAVEKAATRHSLGLPRQQLQLLAQDAFRDVGVRLQERRHLDLIYNFGCHLTDDYRPGVDPALSDPTLARRLRENRTLAMNRLDEVISKYAMMQDKTEEGERQKRRARLLGTAPQPSDPPQASSESGEGPSGMASQECPTTSKAETDDDDDDDDDDDEDNEESEEEEEEEEEEKEATEDEDEDLEQLQEDQGGDEEEEGGDNEGNESPTSPSDFFHRRNSEPAEGLRTPEGQQKRGLTETPASPPGASLDPPSTDAESSGEQLLEPLLGDESPVSQLAELEMEALPEERDISSPRKKSEDSLPTILENGAAVVTSTSVNGRVSSHTWRDASPPSKRFRKEKKQLGSGLLGNSYIKEPMAQQDSGQNTSVQPMPSPPLASVASVADSSTRVDSPSHELVTSSLCSPSPSLLLQTPQAQSLRQCIYKTSVATQCDPEEIIVLSDSD
modifications: 35S-labeled (in vitro translated)
With B1, the binding result in experiment [2] is “no binding”.
